The values that follow come from PMC3695725.

Read-outs that look alike come from different tables or passages of the source.

What all share (assay): SPR
Test [1] addresses recombinant full length GST-TIMAP (wt), non-phosphorylated.
The target in test [2] is double-thiophosphorylated GST-TIMAP (wt).
The target in test [3] is mono-thiophosphorylated GST-TIMAP (wt).
The target in test [4] is recombinant full length GST-TIMAP (wt), non-phosphorylated. The source holds these as a separate data set.

Broadly, the koff is the first-order rate constant of dissociation. In general, kon refers to the rate constant with which the complex forms. Take “recombinant PP1cβ (catalytic subunit of protein phosphatase 1, β isoform) (from UniProt P62140 1-327) (enzyme)”: the Ka in test [1] was determined as 1.8e+06 M⁻¹; in test [2], 1.93e+06 M⁻¹; in test [3], 7.39e+06 M⁻¹; in test [4] it was 1.28e+06 M⁻¹. The koff was found to be 0.000522 s⁻¹ in test [2], 0.000556 s⁻¹ in test [3] and 0.00366 s⁻¹ in test [4]. Besides, the on-rate (kon) was 1010 M⁻¹ s⁻¹ in test [2], 4110 M⁻¹ s⁻¹ in test [3] and 4680 M⁻¹ s⁻¹ in test [4].
